Test results reported in patent US20210139574A1.

Target: Tau seeds: brain fraction from transgenic mice expressing human Tau P301S (human), P10636
Assay: cell-based or functional assay

Tau seeds: brain fraction from transgenic mice expressing human Tau P301S (human), P10636, sequence (P10636 other isoform, or with tags, fused parts or gaps P301S P301S): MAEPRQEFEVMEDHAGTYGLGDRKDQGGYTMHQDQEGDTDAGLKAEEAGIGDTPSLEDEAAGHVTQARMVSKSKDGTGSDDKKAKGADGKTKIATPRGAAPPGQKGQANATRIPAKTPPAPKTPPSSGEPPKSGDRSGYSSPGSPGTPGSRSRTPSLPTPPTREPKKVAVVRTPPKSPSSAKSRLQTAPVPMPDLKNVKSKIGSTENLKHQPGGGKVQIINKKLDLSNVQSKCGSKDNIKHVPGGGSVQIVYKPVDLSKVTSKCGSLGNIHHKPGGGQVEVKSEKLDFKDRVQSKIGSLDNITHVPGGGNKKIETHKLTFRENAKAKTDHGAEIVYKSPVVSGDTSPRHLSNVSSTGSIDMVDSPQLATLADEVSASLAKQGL

IC50, cellular Tau aggregation assay: 8 nM
Imax (maximal efficacy at 300 nM), cellular Tau aggregation assay: 62%
B1: AB1 having a murinised VL of SEQ ID NO: 9 and a murinised VH of SEQ ID NO.: 10 (antibody, V domains shown)
VL: DVVMTQSPASLAVSLGQRATISCQASQSVSSYLAWYQQKPGQPPKLLIYAASYLASGVPSRFKGSGSGTEFTLNIHPVEEEDAATYYCQQGYTRTDIDNTFGGGTKLEIK
VH: QVQLKESGPGLVAPSQSLSITCTVSGIDLSTWRMNWVRQPPGKGLEWIGIIGTGGRTYYANWAKGRFSISKDSTQVFLKMNSLQTEDTATYFCARLGANNNGYPLDLWGAGTTVTVSS
